Data from patent US20190085323A1 (published 2019).

B1: 35CPT-9 IgG1 (antibody, V domains shown)
VH: EVQLVESGGGLVQPGGSLRLSCKASGYTFGDYGMHWVRQAPGKGLEWVAHIAPNDGITHYADSVKGRFTISADTSKNTAYLQMNSLRAEDTAVYYCARGYGWYDHVMDYWGQGTLVTVSS
VL: DIQMTQSPSSLSASVGGRVTITCKSNQNLLDSYGRTYLYWYQQKPGKAPKLLISGTSGLYSGVPSRFSGSGSGTDFTLTISSLQPEDFATYYCFQGYDYPFTFGQGTKVEIKR
B2: 2835-28 IgG1 (antibody, V domains shown)
VH: EVQLVESGGGLVQPGGSLRLSCKASGYTFTDGSMHWVRQAPGKGLEWVAYINPYFGDTYYADSVKGRFTISADTSKNTAYLQMNSLRAEDTAVYYCARGWIDYWGQGTLVTVSS
VL: DIQMTQSPSSLSASVGDRVTITCKSNQNLLLSNGRTFLYWYQQKPGKAPKLLIYGTSYLYSGVPSRFSGSGSGTDFTLTISSLQPEDFATYYCFQANHLPWTFGQGTKVEIKR
B3: 29TYL#1 IgG1 (antibody, V domains shown)
VH: EVQLVESGGGLVQPGGSLRLSCKASGYTFSTGSMHWVRQAPGKGLEWVAHINPHFGLTLYADSVKGRFTISADTSKNTAYLQMNSLRAEDTAVYYCAGSGFDYWGQGTLVTVSS
VL: DIQMTQSPSSLSASVGDRVTITCKSNQNLLLSNGWTFLNWYQQKPGKAPKLLISRISDLYSGVPSRFSGSGSGTDFTLTISSLQPEDFATYYCFQASDFPYTFGQGTKVEIKR
B4: 35WYK-16 IgG1 (antibody, V domains shown)
VH: EVQLVESGGGLVQPGGSLRLSCKASGYTFGTSWMHWVRQAPGKGLEWVAGITPYYGLTFYADSVKGRFTISADTSKNTAYLQMNSLRAEDTAVYYCARGNLDYWGQGTLVTVSS
VL: DIQMTQSPSSLSASVGDRVTITCKSNQNLLLSNGRTFLYWYQQKPGKAPKLLIYDVSDLYSGVPSRFSGSGSGTDFTLTISSLQPEDFATYYCFQGNNFPYTFGQGTKVEIKR
B5: 35WYK-9 IgG1 (antibody, V domains shown)
VH: EVQLVESGGGLVQPGGSLRLSCKASGYTFSHWGMHWVRQAPGKGLEWVAGIYPYFGNTYYADSVKGRFTISADTSKNTAYLQMNSLRAEDTAVYYCARGLLDYWGQGTLVTVSS
VL: DIQMTQSPSSLSASVGDRVTITCKSNQNLLLSNGRTFLHWYQQKPGKAPKLLIFDVSNLYSGAPSRFSGSGSGTDFTLTISSLQPDDFATYYCSQTSRFPWTFGQGTKVEIKR
B6: 31YCM#5 IgG1 (antibody, V domains shown)
VH: EVQLVESGGGLVQPGGSLRLSCKASGYTFGGSYMHWVRQAPGKGLEWVARIYPHYGYTYYADSVKGRFTISADTSKNTAYLQMNSLRAEDTAVYYCARGDDHFDYWGQGTLVTVSS
VL: DIQMTQSPSSLSASVGDRVTITCKSNQNLLDSHGWTYLHWYQQKPGKAPKLLIYDASNLYSGVPSRFSGSGSGTDFTLTISSLQPEDFATYYCSQSYRLPYTFGQGTKVEIKR
notes: also called 3 YCM #5
B7: 30CHS-12 IgG1 (antibody, V domains shown)
VH: EVQLVESGGGLVQPGGSLRLSCAASGFTISDYWIHWVRQAPGKGLEWVAGINPYYGVTVYADSVKGRFTISADTSKNTAYLQMNSLRAEDTAVYYCARGGVLDYWGQGTLVTVSS
VL: DIQMTQSPSSLSASVGDRVTITCKSNQNLLDSGNQGTFLNWYQQKPGKAPKLLIFGTSHLYSGVPSRFSGSGSGTDFTLTISSLQPEDFATYYCSQSTDLPFTFGQGTKVEIKR
B8: 30CHS-13 IgG1 (antibody, V domains shown)
VH: EVQLVESGGGLVQPGGSLRLSCKASGYTFGHYSMFWVRQAPGKGLEWVASIYPHYGHTYYADSVKGRFTISADTSKNTAYLQMNSLRAEDTAVYYCARGHWLDYWGQGTLVTVSS
VL: DIQMTQSPSSLSASVGDRVTITCKSNQNLLDSGNQRTYLNWYQQKPGKAPKLLIYHTSRLYSGVPSRFSGSGSGTDFTLTISSLQPEDFATYYCSQTFRHPGTFGQGTKVEIKR
B9: 30CHS-41 IgG1 (antibody, V domains shown)
VH: EVQLVESGGGLVQPGGSLRLSCKASGYTFTHWGMHWVRQAPGKGLEWVARINPYYGLTHYADSVKGRFTISADTSKNTAYLQMNSLRAEDTAVYYCARGHWLDYWGQGTLVTVSS
VL: DIQMTQSPSSLSASVGDRVTITCKSNQNLLDSGHQRTYLNWYQQKPGKAPKLLIYHTSLLYSGVPSRFSGSGSGTDFTLTISSLQPEDFATYYCSQTFRHPGTFGQGTKVEIKR

molecular target: T1, HER2-ECD (recombinant extracellular domain of human epidermal growth factor receptor 2) (human, UniProt P04626 23-652); assay: ELISA, IgG1 titrated on immobilized HER2-ECD
T1 construct: extracellular domain; Recombinant HER2-ECD coated on ELISA plates

Question: Which EC50 does the source give for B1 here?
Answer: 31.7 ng/mL

Question: With B2 as the binder, how does the EC50 read?
Answer: 3.9 ng/mL

Question: Which EC50 does the source give for B3 here?
Answer: 4.1 ng/mL

Question: B4 was tested. Which EC50 did it give?
Answer: 6.2 ng/mL

Question: For B5, which EC50 is on record?
Answer: 5.7 ng/mL

Question: How did the EC50 turn out when B6 was run?
Answer: 6.3 ng/mL

Question: B7 was tested. Which EC50 did it give?
Answer: 41 ng/mL

Question: With B8 as the binder, how does the EC50 read?
Answer: 41 ng/mL

Question: With B9 as the binder, how does the EC50 read?
Answer: 5 ng/mL
